The values below come from US20180355043A1.

Experiment in all cases: MSD ECL; antigen coated; protocol of Example 3
Test [1] deals with DR4G104: Human HLA-DRA1*01:02/DRB1*04:02 ECD with hemagglutinin peptide HA_304-318 (human).
Test [2] concerns the target DR4G103: Human HLA-DRA1*01:02/DRB1*15:01 ECD with hemagglutinin peptide HA_304-318 (human).
For test [3], the target named is DR4G119: Human HLA-DRA1*01:02/DRB1*10:01 ECD with hemagglutinin peptide HA_304-318 (human).

As for Isotype control (antibody), the ECL signal amounted to 1130 ECL in test [1], 487 ECL in test [2] and 517 ECL in test [3].
